Experimental data published in paper PMC12113857.

System: T1, MprA(D51E) D51E (Corynebacterium glutamicum ATCC 13032), ORF:c49de587
T1 sequence: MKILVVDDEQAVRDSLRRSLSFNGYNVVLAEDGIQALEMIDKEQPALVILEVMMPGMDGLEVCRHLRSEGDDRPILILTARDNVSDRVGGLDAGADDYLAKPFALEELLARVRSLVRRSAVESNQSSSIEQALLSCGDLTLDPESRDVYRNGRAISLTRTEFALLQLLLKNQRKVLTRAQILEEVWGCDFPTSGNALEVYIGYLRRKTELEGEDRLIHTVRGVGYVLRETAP
Experiment: EMSA
Conditions: Buffer P: 50 mM Tris-HCl pH 7.5, 50 mM KCl, 10 mM MgCl2, 0.5 mM EDTA, 10% glycerol; 30 min at 20 C; DNA 25-107 nM, protein 0-64-fold molar excess; 6% native …

Question: For “CGATACCCTTTTCGTCTTCCAGTCCGTGACAGACTTCCTCCCAATTAAGACGTCCACGCGTTGGAACATATTTCACTTATGCTAACACCTCTTAAGCATAAAGAAGCCAGTTACCTCCTCATTTTAAGAGAAGATAACTGGCTCTTGTTAAATTCTTACCTACAAAAGGTTGTAGGCGATGAATTTAAGGTTTAGAACTGCTCTACGTCCACGAGACCGAGCTGTGCTGCCTTAACCAGACGGCGTGGGATGCGAACGGTCTGACCGTCGATCTTGACCTCCTGAAGGGCGACATTGTCG (double strand) [mprA promoter]”, which binding is on record?
Answer: binds
